Source: patent publication US20050048614A1, “Biosynthetic oncolytic molecules and uses therefor” (Children's Medical Center Corporation, priority 2000, published 2005)

Columns and labels:
microtubules = test: effect on microtubules in treated cells; format: cell-based
From the text: Based on a detailed understanding of the functional domains of osteopontin and an understanding of the role this multifunctional cytokine plays in the regulation of cellular apoptosis, biosynthetic molecules which mimic distinct functions of osteopontin are provided for use in a variety of therapeutic applications, in particular, in the treatment of cancer and inflammatory conditions such as arthritis. In particular, the biosynthetic molecules are useful in the elimination of abnormal or unwanted cells that express at least an integrin receptor and/or that co-express both an integrin and a CD44 receptor. Many of the biosynthetic molecules/peptides disclosed herein are believed to uncouple integrin signaling form CD 44 signaling, resulting in the stabilization of microtubules by down stream activation of rhoB. […] Cells treated with these molecules organize the arrays of disorganized microtubules into parallel bundles and freeze the normal, microtubular, mitotic bundle. As a result, the treated cells form several more asters at various locations with the cell, serving to further strengthen the cell's structure and preventing cell separation.
Many of the biosynthetic molecules/peptides disclosed herein are believed to uncouple integrin signaling form CD 44 signaling. […] Cells treated with these molecules organize the arrays of disorganized into parallel bundles and freeze the normal, microtubular, mitotic bundle. As a result, the treated cells form several more asters at various locations with the cell, serving to further strengthen the cell's structure and preventing cell separation.

[1] = system: metastatic tumor cell line; test: apoptosis assay, flow cytometric analysis of propidium iodide uptake; format: cell-based; settings: apoptosis assays
From the text: A first generation osteopontin-derived biosynthetic molecule, oncolysin N, was engineered based on the isolation of a domain of osteopontin sufficient to impart pro-apoptotic activity when isolated away from the naturally-occurring osteopontin polypeptide. In particular, the oncolysin N molecule was designed to include the following domains: (1) a signal sequence (i.e., signal peptide), derived in this instance from the native osteopontin amino acid sequence (i.e., amino acids 1-16 of the human osteopontin-B amino acid sequence set forth as SEQ ID NO:1); (2) a golgi processing domain derived from the native osteopontin amino acid sequence (i.e., amino acids 17-30 of the human osteopontin-B amino acid sequence set forth as SEQ ID NO:1); (3) a pro-apoptotic domain comprising contiguous amino acid residues of human osteopontin-B sufficient to induce apoptosis (i.e., amino acids 147-170 of the human osteopontin-B amino acid sequence set forth as SEQ ID NO:1) yet lacking additional osteopontin-B sequences which are unnecessary for apoptotic activity, or alternatively decrease pro-apoptotic activity, of the biosynthetic molecule; and (4) two linker domains, a first linker domain operably linking the signal sequence to the golgi processing domain, and a second linker domain operably linking the golgi processing domain to the pro-apoptotic domain. The signal sequence and golgi processing domain optimize synthesis, processing through the golgi and secretion of the biosynthetic oncolysin N molecule. […]
Cells are grown in culture and treated with varying doses of exogenous oncolysin N. Apoptosis is determined by flow cytometric analysis according to the uptake of propidium iodide. […] DNA cleavage in apoptotic cells is assessed by flow cytometric analysis, as cells containing hypodiploid nuclei bind less propidium iodide than intact nuclei.
Cellular apoptosis can also be determined using standard criteria in the art such as nuclear condensation, chromatin fragmentation, and viability as assessed by Trypan blue exclusion. […]

SHP-1 = test: signal transduction pathway in infected cells (FIG. 3), SHP-1; format: cell-based; settings: infected cells compared to control cells
From the text: (§1) FIG. 3 depicts an alteration in the signal transduction pathway in cells infected with oncolysin 1/Sophin C as compared to control cells.

PI-3 kinase = test: signal transduction pathway in infected cells (FIG. 3), PI-3 kinase; format: cell-based; settings: infected cells compared to control cells
From the text: as §1

MDA-MB-231 xenografts = test: MDA-MB-231 xenograft tumor growth in nude mice (FIG. 4); format: in vivo; settings: for tumor volume: compared to controls
Method: To evaluate the effectiveness of oncolysin 1/Sophin C against primary tumor growth and metastasis, 1×10^7 MDA-MB-231 breast cancer cells were injected subcutaneously into the left flank of nude mice. After six weeks the resulting tumors were aseptically dissected out, minced and 1 mm-tumor pieces were transplanted into the right flank of nude mice using a trocar needle. One weeks later, when tumors measured approximately 10 mm, mice were assigned to different experimental groups. One set of 24 animals bearing MDA-MB-231 xenografts were divided into 3 groups that received the following treatments: A first group of 8 animals were injected with pRetro-oncolysin (1×10^6 viral particles). After one day and weekly thereafter (for 3 weeks) these animals received a weekly injection of the inducing agent Doxycyxlin (1 mg/kg) through the peritoneal cavity. A second group of 8 animals received a weekly injection of Doxycyclin (uninfected tumors) and a third group received a weekly injection of oncolysin protein (10 μg/kg). In another set of experiments, the pRetro-oncolysin was injected into the marrow stroma of tumor bearing mice. After, day one, the animals were treated as above, with weekly injection of Doxycyclin. Tumors were measured once every two days with microcalipers, and tumor volume was calculated as length×width×height×0.5236. Body weight was measured on the day of the injection, 4 days later and weekly thereafter. Four days after the first injection, blood samples were collected from the tail vein using the Unopette™ micro-collection kit. Total leukocyte and platelet counts were determined manually using a hemocytometer. Blood smears stained with the Hema3™ kit were used for assessing absolute numbers of granulocytes and lymphocytes. Treatment-related toxicity was evaluated based on the differences in body weight, liver and kidney marker enzymes, and hematological parameters between treatment groups. 20 weeks after treatment, animals were killed by decapitation under anesthesia. […] Liver, heart, uterus, ovaries, lungs spinal cord and all long bones were evaluated histologically.

MDA-MB-231 cells = test: FragEL apoptotic assay in cells infected with pRetro-oncolysin and induced with Doxycycline; format: cell-based, human; settings: 48 h after infection, induced with 3 ug Doxycycline for 6 hours; versus uninduced cells
Method: 50,000 Breast tumor cells were infected with approximately 500,000 viral particles in DME+10% FBS containing 4 μg/ml polybrene. After 48 h., the MDA-MB-231 cells were induced with 3 ug of Doxycycline for 6 hours in defined media. Apoptosis was assessed using the FragEL™ apoptotic assay. Uninduced cells are viable and labeled blue when viewed at 10× magnification under a light microscope. […] Each experiment was performed in duplicates and repeated 3 times.

MDA-MB-231 tumor cells = test: tubulin staining by indirect fluorescent immunochemistry; format: cell-based, human; settings: induced with 3 μg/ml Doxycycline, six hours; versus uninduced infected cells
Method: Oncolysin 1-infected MDA-MB-231 tumor cells were induced with 3 μg/ml of Doxycycline. After six hours, the cells were fixed in 10% formaldehyde then stained for tubulin using indirect fluorescent immunochemistry.

[2] = system: MDA-MB-231 Human Breast Cancer Cell; test: nuclear stain (H and E) of infected cells; format: cell-based; settings: with or without doxycyclin induction for six hours
From the text: Infected cells were stained with H and E without induction with doxycyclin or after induction for six hours.

[3] = system: breast, prostate and uterine tumors; test: tumor growth in breast, prostate and uterine tumor models, dose response (FIG. 5); format: in vivo
Method: The effect of Sophin C on tumor growth was evaluated for three tumor types, breast, prostate and uterine.

Molecule: PGIPVKQADSGSSEEKGGGPGTPVVPTVDTYDGRGDSVVYGLRKKKAARGRRAARGRR (PGIPVKQADSGSSEEKGGGPGTPVVPTVDTYDGRGDSVVYGLRKKKAARGRRAARGRR) [SEQ ID NO:15]
- capping of microtubules (microtubules): inhibit the capping of microtubules
- polymerization of microtubules (microtubules): induces their unidirectional polymerization

Molecule: PGIPVKQADSGSSEEKGGGPGTPVVPTVDTYDGRGDSVVYGLRKKKAAR GRRAARGRR (PGIPVKQADSGSSEEKGGGPGTPVVPTVDTYDGRGDSVVYGLRKKKAARGRRAARGRR) [SEQ ID NO:14]
- capping of microtubules (microtubules): inhibit the capping of microtubules
- polymerization of microtubules (microtubules): induces their unidirectional polymerization

Molecule: PYAGRGDSVVYGLKKKNNQKAEPLIGRKKTR [SEQ ID NO:16]
- capping of microtubules (microtubules): inhibit the capping of microtubules
- polymerization of microtubules (microtubules): induces their unidirectional polymerization

Molecule: osteopontin-B: native human osteopontin-B, a preferred splice variant of the human osteopontin gene [reference compound]
- apoptotic activity (induction of apoptosis) [1]: no apoptotic activity

Molecule: GIPVKQADSGSSEEKGGGPPTPVVPTVDTYDGRGDSVVYGLRKKKAARG RRAARGRR (GIPVKQADSGSSEEKGGGPPTPVVPTVDTYDGRGDSVVYGLRKKKAARGRRAARGRR) [SEQ ID NO:10]
- capping of microtubules (microtubules): inhibit the capping of microtubules
- polymerization of microtubules (microtubules): induces their unidirectional polymerization

B1: … VYGLRKKKAARGRRAARGRR (protein)
chain: HHGHHGGHHHPGIPVKQADSGSSEEKGGGPPTPVVPTVDTYDGRGDSVVYGLRKKKAARGRRAARGRR
modifications: His tag
- capping of microtubules (microtubules): inhibit the capping of microtubules
- polymerization of microtubules (microtubules): induces their unidirectional polymerization

B2: MRIAVICFCLLGITCAGGGPGIPVKQADSGSSEEKGGGPGTPVVPTVDTY DGRGDSVVYGLRSKKAARGRRAARGRR (protein)
chain: MRIAVICFCLLGITCAGGGPGIPVKQADSGSSEEKGGGPGTPVVPTVDTYDGRGDSVVYGLRSKKAARGRRAARGRR
- capping of microtubules (microtubules): inhibit the capping of microtubules
- polymerization of microtubules (microtubules): induces their unidirectional polymerization

B3: MRIAVICFCLLGITCAGGGPGIPVKQADSGSSEEKGGGPGTPVVPTVDTY DGRGDSVVYGLRKKKAARGRRAARGRR (protein)
chain: MRIAVICFCLLGITCAGGGPGIPVKQADSGSSEEKGGGPGTPVVPTVDTYDGRGDSVVYGLRKKKAARGRRAARGRR
- capping of microtubules (microtubules): inhibit the capping of microtubules
- polymerization of microtubules (microtubules): induces their unidirectional polymerization

B4: oncolysin 1/Sophin C: second generation molecule: oncolysin N with synthetic heparin binding domain (RSKK and RGRR) at the C terminus; 71mer (protein)
chain: MRIAVICFCLLGITCAGGGPGIPVKQADSGSSEEKGGGPGTPVVPTVDTYDGRGDSVVYGLRSKKAARGRR
- SHP-1 protein expression (SHP-1): decreased SHP-1 protein expression
- PI-3 kinase expression (PI-3 kinase): increased PI-3 kinase expression
- health of treated mice (MDA-MB-231 xenografts; all treated mice, after approximately 6 months, control animals died or were sacrificed): remained healthy
- tumor volume (MDA-MB-231 xenografts; group 1: pRetro-oncolysin 1×10^6 viral particles plus weekly Doxycyclin 1 mg/kg): striking reduction in tumor volume
- tumor volume (MDA-MB-231 xenografts; group 3: weekly injection of oncolysin protein 10 μg/kg): striking reduction in tumor volume
- apoptosis (FragEL staining) (MDA-MB-231 cells): undergo apoptosis
- tubulin staining (MDA-MB-231 tumor cells): stabilized tubulin around multi-nuclei
- multinucleation [2]: Multinucleation was observed only in induced cells
- tumor volume ([3]; 50 μg/kg protein): reduction in tumor volume
- tumor volume ([3]; 500 μg/kg protein): reduction in tumor volume
- capping of microtubules (microtubules): inhibit the capping of microtubules
- polymerization of microtubules (microtubules): induces their unidirectional polymerization
- apoptotic activity (induction of apoptosis) [1]: dramatically increase apoptotic activity

B5: Oncolysin 2: second generation molecule: oncolysin N with a synthetic collagen binding domain at the C terminus (protein)
chain: MRIAVICFCLLGITCAGGGPGIPVKQADSGSSEEKGGGPGTPVVPTVDTYDGRGDSVVYGLRSKPAGAAGGPAGPAGPAGPAGPAGP
- apoptotic activity (induction of apoptosis) [1]: more effective at promoting apoptosis than oncolysin N
